From US20180127513A1 (Bristol-Myers Squibb, published 2018)

Assays:
human CD73 on cells [1] = biological target: T1, human CD73 on cells (human, UniProt P21589 27-549); experiment: cell-based or functional assay
T1 sequence: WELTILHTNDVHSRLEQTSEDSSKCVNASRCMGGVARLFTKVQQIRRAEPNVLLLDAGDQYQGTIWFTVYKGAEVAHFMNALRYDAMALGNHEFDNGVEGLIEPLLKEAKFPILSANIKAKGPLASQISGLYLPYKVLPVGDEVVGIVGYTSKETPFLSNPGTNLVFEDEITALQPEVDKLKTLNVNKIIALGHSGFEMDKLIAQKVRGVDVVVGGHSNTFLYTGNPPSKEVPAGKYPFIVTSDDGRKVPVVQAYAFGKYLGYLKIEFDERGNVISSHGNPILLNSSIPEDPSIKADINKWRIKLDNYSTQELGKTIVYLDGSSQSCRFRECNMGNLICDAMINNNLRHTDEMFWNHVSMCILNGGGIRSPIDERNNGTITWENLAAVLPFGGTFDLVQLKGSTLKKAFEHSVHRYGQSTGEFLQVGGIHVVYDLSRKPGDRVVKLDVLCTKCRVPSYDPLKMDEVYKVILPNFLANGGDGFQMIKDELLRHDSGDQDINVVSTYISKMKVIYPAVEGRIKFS

N-hCD73-his = biological target: T2, N-hCD73-his (human, UniProt P21589 26-336); experiment: SPR
T2 construct: also called hCD73(26-336)His; CD73(26-336)His; not shown: His tag
T2 sequence: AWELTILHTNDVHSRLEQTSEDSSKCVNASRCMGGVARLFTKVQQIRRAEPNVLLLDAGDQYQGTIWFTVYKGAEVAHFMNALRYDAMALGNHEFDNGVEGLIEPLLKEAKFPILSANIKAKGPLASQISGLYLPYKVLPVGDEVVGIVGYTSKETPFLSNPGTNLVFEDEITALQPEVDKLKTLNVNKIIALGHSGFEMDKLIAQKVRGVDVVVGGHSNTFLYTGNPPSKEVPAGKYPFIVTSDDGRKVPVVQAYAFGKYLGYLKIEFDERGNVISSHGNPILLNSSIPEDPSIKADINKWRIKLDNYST
Text: One experimental format tested the binding of the N-terminal domain of hCD73 (consisting of residues 26-336 of human CD73; termed N-hCD73) to antibodies that were captured on immobilized protein A surfaces. For these experiments, protein A (Pierce) was immobilized to a density of 3000-4000 RU on flow cells 1-4 of a CM5 sensor chip (GE Healthcare) using standard ethyl(dimethylaminopropyl) carbodiimide (EDC)/N-hydroxysuccinimide (NHS) chemistry, with ethanolamine blocking, in a running buffer of 0.01 M HEPES pH 7.4, 0.15 M NaCl, 3 mM EDTA, 0.005% v/v tween 20. […] The running buffer for the kinetic experiments was 10 mM sodium phosphate, 130 mM sodium chloride, 0.05% tween 20, pH 7.1. The surfaces were regenerated after each cycle using two 30 s pulses of 10 mM glycine pH 1.5 at a flow rate of 30 μl/min. Sensogram data was double-referenced and then fitted to a 1:1 Langmuir model using Biacore T100 evaluation software v2.0.4, to determine the association rate constant (ka), the dissociation rate constant (kd), and the equilibrium dissociation constant (KD).

human CD73 on cells [2] = biological target: T1, human CD73 on cells; experiment: cell-based or functional assay; remark: listed apart in the source

Ymax, CD73 internalization (100 nM 11F11 set to 100%) (human CD73 on cells [1]): 98%
Kd (N-hCD73-his): 1.1 nM
Ymax, cAMP HTRF assay (100 nM 11F11 set to 100%) (human CD73 on cells [2]): 76%
B1: 11F11 (antibody, human IgG2, kappa, V domains shown)
VH: QVQLVESGGGVVQPGRSLRLSCATSGFTFSNYGMHWVRQAPGKGLEWVAVILYDGSNKYYPDSVKGRFTISRDNSKNTLYLQMNSLRAEDTAVYYCARGGSSWYPDSFDIWGQGTMVTVSS
VL: DIQMTQSPSSLSASVGDRVTITCRASQGISSWLAWYQQKPEKAPKSLIYAASSLQSGVPSRFSGSGSGTDFTLTISSLQPEDFATYYCQQYNSYPLTFGGGTKVEIKR
notes: IgG2; also called 11F11-2
